In patent US20250034266A1:
Where a chain is given by its changes, count along the chain named. Like-named read-outs stand apart in the source and are kept apart here. Values belong to the binder of their own block, whether it stands above or below them.

Key:
human CCR4 (human) = molecular target: T1, human CCR4 (human) (UniProt P51679); assay: FACS on ExpiCHO-S-human CCR4 cells
T1 sequence (looked up): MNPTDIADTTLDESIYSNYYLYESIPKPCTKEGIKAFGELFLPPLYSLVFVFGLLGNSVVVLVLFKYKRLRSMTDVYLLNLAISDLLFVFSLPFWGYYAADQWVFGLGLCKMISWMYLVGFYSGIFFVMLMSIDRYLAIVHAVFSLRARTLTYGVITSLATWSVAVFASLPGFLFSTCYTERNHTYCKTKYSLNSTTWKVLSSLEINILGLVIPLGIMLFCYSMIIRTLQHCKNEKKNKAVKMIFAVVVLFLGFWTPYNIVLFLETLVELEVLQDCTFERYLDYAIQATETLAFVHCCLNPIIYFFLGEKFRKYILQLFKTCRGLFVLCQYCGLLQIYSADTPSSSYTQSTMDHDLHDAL

human CCR1 (human) = molecular target: T2, human CCR1 (human) (UniProt P32246); assay: FACS on ExpiCHO-S-human CCR1 cells
T2 sequence (looked up): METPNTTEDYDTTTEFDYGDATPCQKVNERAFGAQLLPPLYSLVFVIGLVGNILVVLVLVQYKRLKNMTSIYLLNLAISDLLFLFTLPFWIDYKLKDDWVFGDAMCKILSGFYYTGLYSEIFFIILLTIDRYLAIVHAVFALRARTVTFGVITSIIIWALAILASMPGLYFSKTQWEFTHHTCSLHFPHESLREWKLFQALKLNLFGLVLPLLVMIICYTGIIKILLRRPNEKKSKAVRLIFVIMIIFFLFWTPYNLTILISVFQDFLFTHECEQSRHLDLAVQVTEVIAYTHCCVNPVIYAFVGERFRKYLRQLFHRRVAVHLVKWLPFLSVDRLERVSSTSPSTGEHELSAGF

[1] = molecular target: cynomolgus CCR8 (cynomolgus) (UniProt G7NYJ2); assay: FACS on cynomolgus CCR8 cells
Chain of cynomolgus CCR8 (cynomolgus) (G7NYJ2 entry or part of it): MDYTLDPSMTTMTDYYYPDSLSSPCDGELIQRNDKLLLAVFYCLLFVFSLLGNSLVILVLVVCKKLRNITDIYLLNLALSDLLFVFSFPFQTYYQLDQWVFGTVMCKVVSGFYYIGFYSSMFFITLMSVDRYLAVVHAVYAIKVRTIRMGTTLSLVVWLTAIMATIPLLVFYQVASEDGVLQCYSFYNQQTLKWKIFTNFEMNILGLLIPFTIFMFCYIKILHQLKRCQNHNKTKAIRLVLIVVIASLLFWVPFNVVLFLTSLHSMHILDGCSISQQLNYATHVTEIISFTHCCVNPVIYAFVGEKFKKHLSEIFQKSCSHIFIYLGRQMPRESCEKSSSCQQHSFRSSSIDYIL

[2] = molecular target: cynomolgus CCR8 (cynomolgus) (UniProt G7NYJ2); assay: FACS on ExpiCHO-S-cynomolgus CCR8 cells
[3] = molecular target: cynomolgus CCR8 (cynomolgus) (UniProt G7NYJ2); assay: FACS on HEK293-cynomolgus CCR8 cells
[4] = molecular target: cynomolgus CCR8 (cynomolgus) (UniProt G7NYJ2); assay: FACS on HEK293-cynomolgus CCR8 cells; remark: listed apart in the source
human CCR8 (human) [5] = molecular target: human CCR8 (human) (UniProt P51685); assay: FACS on CHO-K1-human CCR8 cells
Chain of human CCR8 (human) (P51685 whole entry): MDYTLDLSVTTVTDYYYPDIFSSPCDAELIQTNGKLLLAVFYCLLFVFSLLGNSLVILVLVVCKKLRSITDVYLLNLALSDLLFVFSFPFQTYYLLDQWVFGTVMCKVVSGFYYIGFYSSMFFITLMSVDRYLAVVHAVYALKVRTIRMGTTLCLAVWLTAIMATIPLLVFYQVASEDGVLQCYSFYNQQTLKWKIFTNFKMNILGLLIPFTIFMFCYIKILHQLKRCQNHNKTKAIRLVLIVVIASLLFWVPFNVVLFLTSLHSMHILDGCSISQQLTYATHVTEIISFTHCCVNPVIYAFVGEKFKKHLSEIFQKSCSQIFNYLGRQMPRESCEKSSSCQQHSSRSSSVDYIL

human CCR8 (human) [6] = molecular target: human CCR8 (human) (UniProt P51685); assay: FACS, competition with AF647-human CCL1 on CHO-K1-human CCR8 cells
human CCR8 (human) [7] = molecular target: human CCR8 (human) (UniProt P51685); assay: FACS on CHO-K1-human CCR8 cells; remark: listed apart in the source
human CCR8 (human) [8] = molecular target: human CCR8 (human) (UniProt P51685); assay: FACS on HEK293-human CCR8 cells
human CCR8 (human) [9] = molecular target: human CCR8 (human) (UniProt P51685); assay: FACS on HuT78 cells (endogenous human CCR8)
[10] = molecular target: cynomolgus CCR8 (cynomolgus) (UniProt G7NYJ2); assay: FACS on HEK293-cynomolgus CCR8 cells; remark: listed apart in the source
human CCR8 (human) [11] = molecular target: human CCR8 (human) (UniProt P51685); assay: FACS competition with 4 nM AF647-human CCL1 on human CCR8 cells
human CCR8 (human) [12] = molecular target: human CCR8 (human) (UniProt P51685); assay: FACS on HEK293-human CCR8 cells; remark: listed apart in the source
[13] = molecular target: cynomolgus CCR8 (cynomolgus) (UniProt G7NYJ2); assay: FACS on HEK293-cynomolgus CCR8 cells; remark: listed apart in the source
human CCR8 (human) [14] = molecular target: human CCR8 (human) (UniProt P51685); assay: FACS, competition with AF647-human CCL1 on CHO-K1-human CCR8 cells; remark: listed apart in the source
human CCR8 (human) [15] = molecular target: human CCR8 (human) (UniProt P51685); assay: FACS, competition with AF647-human CCL1 on HEK293-human CCR8 cells
human CCR8 (human) [16] = molecular target: human CCR8 (human) (UniProt P51685); assay: FACS, competition with AF647-human CCL1 on CHO-K1-human CCR8 cells; remark: listed apart in the source
human CCR8 (human) [17] = molecular target: human CCR8 (human) (UniProt P51685); assay: FACS on HuT78 cells (endogenous human CCR8); remark: listed apart in the source
human CCR8 (human) [18] = molecular target: human CCR8 (human) (UniProt P51685); assay: FACS on HEK293-human CCR8 cells; remark: listed apart in the source
human CCR8 (human) [19] = molecular target: human CCR8 (human) (UniProt P51685); assay: FACS, competition with CCL1 on CHO-K1-human CCR8 cells
[20] = molecular target: cynomolgus CCR8 (cynomolgus) (UniProt G7NYJ2); assay: FACS on HEK293-Cynomolgus CCR8 cells
human CCR8 (human) [21] = molecular target: human CCR8 (human) (UniProt P51685); assay: FACS on HEK293-human CCR8 cells; remark: listed apart in the source
human CCR8 (human) [22] = molecular target: human CCR8 (human) (UniProt P51685); assay: cell-based or functional assay
human CCR8 (human) [23] = molecular target: human CCR8 (human) (UniProt P51685); assay: FACS, competition with AF647-human CCL1 on CHO-K1-human CCR8 cells; remark: listed apart in the source
[24] = molecular target: human CCR8 tagged with ProLink (PK) (human) (UniProt P51685); assay: cell-based or functional assay
Chain of human CCR8 tagged with ProLink (PK) (human) (P51685 whole entry): as above

human CCR8 (human) [25] = molecular target: human CCR8 (human) (UniProt P51685); assay: cell-based or functional assay; remark: listed apart in the source
human CCR8 (human) [26] = molecular target: human CCR8 (human) (UniProt P51685); assay: FACS, competition with AF647-human CCL1 on CHO-K1-human CCR8 cells; remark: listed apart in the source
human CCR8 (human) [27] = molecular target: human CCR8 (human) (UniProt P51685); assay: cell-based or functional assay; remark: listed apart in the source
human CCR8 (human) [28] = molecular target: human CCR8 (human) (UniProt P51685); assay: FACS, competition with CCL1 on CHO-K1-human CCR8 cells; remark: listed apart in the source
human CCR8 (human) [29] = molecular target: human CCR8 (human) (UniProt P51685); assay: FACS on HEK293-human CCR8 cells; remark: listed apart in the source
[30] = molecular target: cynomolgus CCR8 (cynomolgus) (UniProt G7NYJ2); assay: FACS on HEK293-cynomolgus CCR8 cells; remark: listed apart in the source
human CCR8 (human) [31] = molecular target: human CCR8 (human) (UniProt P51685); assay: FACS on CHO-K1-human CCR8 cells; remark: listed apart in the source

Max MFI (human CCR4 (human)): 32.8 MFI | Max MFI (human CCR1 (human)): 226 MFI
B1: Hu149-9 (antibody, human IgG1, V domains shown)
VH: EVQLVESGGGLVQPGGSLKLSCAASGFTFNTYAMNWVRQASGKGLEWVGRIRSKSNFYATAYAASVKGRFTISRDDSKNTAYLQMNSLKTEDTAVYYCTRGRDYGSSYAMDYWGQGTLVTVSS
VL: DIVMTQSPLSLPVTPGEPASISCRSSKSLLHSNANTYLYWFLQKPGQSPQLLIYRMSNLASGVPDRFSGSGSGTDFTLKISRVEAEDVGVYYCMQHLEYPLTFGGGTKVELK

Max MFI (human CCR4 (human)): 44 MFI
B2: Hu149-4 (antibody, human IgG1, V domains shown)
VH: B1 VH with A61Y
VL: B1 VL

Binding Ratio (GFP + MFI)/(GFP - MFI) [1]: 7.9 | Max MFI (human CCR4 (human)): 6.1 MFI | Max MFI [2]: 27 MFI | Max MFI [3]: 648000 MFI | EC50 [4]: 9.08 nM | Max MFI [4]: 802 MFI | EC50 (human CCR8 (human) [5]): 0.0699 nM | Max MFI (human CCR8 (human) [5]): 215000 MFI | IC50 (human CCR8 (human) [6]): 0.243 nM | Max Inhibition (%) (human CCR8 (human) [6]): 96% | Max MFI (human CCR1 (human)): 133 MFI | EC50 (human CCR8 (human) [7]): 0.0823 nM | Max MFI (human CCR8 (human) [7]): 814000 MFI | EC50 (human CCR8 (human) [8]): 0.117 nM | Max MFI (human CCR8 (human) [8]): 2020 MFI | EC50 (human CCR8 (human) [9]): 0.123 nM | Max MFI (human CCR8 (human) [9]): 60800 MFI | Max MFI [10]: 1240 MFI | Inhibition Rate (%) (human CCR8 (human) [11]): 100% | EC50 (human CCR8 (human) [12]): 0.119 nM | Max MFI (human CCR8 (human) [12]): 2810 MFI | Max MFI [13]: 2340 MFI | IC50 (human CCR8 (human) [14]): 0.193 nM | Max Inhibition (%) (human CCR8 (human) [14]): 99.1% | IC50 (human CCR8 (human) [15]): 0.335 nM | Max Inhibition (%) (human CCR8 (human) [15]): 98.8% | IC50 (human CCR8 (human) [16]): 0.143 nM | Max Inhibition (%) (human CCR8 (human) [16]): 99.8% | Max MFI (human CCR8 (human) [17]): 31900 MFI | EC50 (human CCR8 (human) [18]): 0.215 nM | Max MFI (human CCR8 (human) [18]): 5940 MFI | IC50 (human CCR8 (human) [19]): 0.178 nM | Max Inhibition (%) (human CCR8 (human) [19]): 99.6% | Max MFI [20]: 2010 MFI | EC50 (human CCR8 (human) [21]): 0.197 nM | Max MFI (human CCR8 (human) [21]): 2780 MFI | IC50, inhibition of CCL1 induced β-Arrestin recruitment (human CCR8 (human) [22]): 0.23 nM | Max Inhibition (%), CCL1 induced β-Arrestin recruitment (human CCR8 (human) [22]): 92.6% | IC50 (human CCR8 (human) [23]): 0.171 nM | Max Inhibition (%) (human CCR8 (human) [23]): 98.7% | IC50, inhibition of CCL1 induced β-Arrestin recruitment, CHO-K1-human CCR8 β-Arrestin cells [24]: 6.54 nM | Max Inhibition (%), CCL1 induced β-Arrestin recruitment, CHO-K1-human CCR8 β-Arrestin cells [24]: 80.3% | IC50, blocking of CCL1 induced cell migration (human CCR8 (human) [25]): 1.25 nM | IC50, blocking of cell migration induced by CCL1 (human CCR8 (human) [25]): 0.278 nM | IC50, inhibition of CCL1 induced β-Arrestin recruitment (human CCR8 (human) [25]): 1.06 nM | Max Inhibition (%), CCL1 induced β-Arrestin recruitment (human CCR8 (human) [25]): 89.9% | Max Inhibition (%), cell migration induced by CCL1 (human CCR8 (human) [25]): 104% | Max inhibition (%), CCL1 induced cell migration (human CCR8 (human) [25]): 117% | IC50 (human CCR8 (human) [26]): 0.198 nM | Max Inhibition (%) (human CCR8 (human) [26]): 99.6% | IC50, inhibition of CCL1 induced β-Arrestin recruitment (human CCR8 (human) [27]): 0.89 nM | Max Inhibition (%), CCL1 induced β-Arrestin recruitment (human CCR8 (human) [27]): 92.5% | IC50 (human CCR8 (human) [28]): 0.114 nM | Max Inhibition (%) (human CCR8 (human) [28]): 100% | EC50 (human CCR8 (human) [29]): 0.0878 nM | Max MFI (human CCR8 (human) [29]): 3890 MFI | EC50 [30]: 19.4 nM | Max MFI [30]: 1.72e+06 MFI | Binding Ratio (GFP + MFI)/(GFP - MFI) (human CCR8 (human) [31]): 158 | EC50 (human CCR8 (human) [31]): 0.124 nM | Max MFI (human CCR8 (human) [31]): 4920 MFI
B3: 433H monoclonal antibody (BD Biosciences, #644092) (antibody, from another filing, mouse IgG2a, V domains shown)
VH: EVQLVETGGGLVQPKGSLRLSCAASGFPFNTFAMNWVRQAPGKGLEWLARIRSKSNNYATYYADSVKDRFTISRDDSRRMLYLLMNNVKFEDTAIYYCVRGKENNYGYAMDYWGQGTSVTVSS
VL: DIVMTQAAPSVPVTPGESVSISCRSSQSLLHSNGNTYLYWFLQRPGQSPQLLIYRMSNLASGVPDRFSGSGSGTAFTLRISRVEAEDVGVYYCMQHLEYPFTFGIGTKLELKR
